Reference: paper PMC12804074
Each block holds one substance with its values, some of them ahead of it.

Legend:
[1] = molecular target: (NFS1–ISD11–ACP–ISCU2)2 complex (human) (UniProt Q9HD34); assay: ITC
[2] = molecular target: FDX2ALC (ferredoxin-2 labelled with ALC 480) (human) (UniProt Q6P4F2); assay: flow-induced dispersion analysis
[3] = molecular target: FXNALC (frataxin labelled with ALC 480) (human) (UniProt Q16595); assay: flow-induced dispersion analysis
[4] = molecular target: cysteine desulfurase complex (NFS1–ISD11–ACP)2 (human) (UniProt Q9HD34); assay: ITC

Chain of FDX2ALC (ferredoxin-2 labelled with ALC 480) (human) (Q6P4F2 53-183): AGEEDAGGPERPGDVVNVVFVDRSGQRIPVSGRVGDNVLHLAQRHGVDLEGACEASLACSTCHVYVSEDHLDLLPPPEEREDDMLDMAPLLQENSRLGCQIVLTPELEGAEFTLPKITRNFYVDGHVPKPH
Chain of ferredoxin-2 (FDX2), wild type (Q6P4F2 53-183): as above

- KD of the tight-binding exothermic mode [1]: 102 nM
Substance: ferredoxin-2 (FDX2), wild type (from UniProt Q6P4F2 53-183) (natural protein)

- Kd [2]: 16000 nM
Substance: (NFS1–ISD11–ACP–ISCU2)2 complex (from UniProt Q9HD34 1-91; O14561 69-156; Q9H1K1-1 35-167)
- Kd [3]: 102 nM

- Kd [1]: 146 nM
Substance: frataxin (FXN) (from UniProt Q16595 42-210) (natural protein)

- Kd [4]: 39 nM
Substance: FDX2 D179A (from UniProt Q6P4F2 53-183) (natural protein)
